{"source": "paper PMC12197075", "about": "“Identification of the Glyceraldehyde-3-Phosphate Dehydrogenase (GeGAPDH) Gene Family in Gastrodia elata Revealing Its Response Characteristics to Low-Temperature and Pathogen Stress” (Plants, 2025)", "substrate": "O=C[C@H](O)COP(=O)(O)O", "test": "purified protein", "conditions": "phosphorylation direction, 0.6 mM NAD+, 50 mM triethanolamine, 50 mM sodium phosphate (printed 'bisphosphate'), 0.2 mM EDTA, 25 °C, pH not stated, G3P 0.25-5 mM", "data": [{"protein": "GeGAPDH1 (Gastrodia elata) (protein) MASTAFVGSVTPLSEASFPFASSTRAPEPFRVFCWRSRSSEGSSVLCASTSCSKFPLAAISTQKSNRRNFQHTKATATETPPVVSRSSSDGKTKVGINGFGRIGRLVLRIAASRDDIEVVAVNDPFVDAKYMAYMFKYDSTHGTFKGTIKVVDESTIEIDGKRIAVTSKRDPSEITWSDFGAEYVVESSGVFTTMDKASAHLKGGAKKVVISAPSADAPMFVVGVNEQMYQPHMNIVSNASCTTNCLALLAKVVHEEFGIVEGLMTTVHATTATQKTVDGPSMKDWRGGRGASQNIIPSSTGAAKAVGKVLPELNGKLTGMAFRVPTTNVSVVDLTCRLANDASYEDVKAAVRAASEGCLKGILGYTDEDVVSNDFIGDSRSSIFDAKAGIGLGTNFMKLVSWYDNEWGYSNRVLDLIQHVARVCAHK", "values": [{"measurement": "Km", "value": 312, "unit": "µM"}]}]}
